# T1: human iRhom2, endogenously expressed (human, UniProt Q6PJF5 1-856)
# T1 construct: also called RHBDF2
# T1 sequence: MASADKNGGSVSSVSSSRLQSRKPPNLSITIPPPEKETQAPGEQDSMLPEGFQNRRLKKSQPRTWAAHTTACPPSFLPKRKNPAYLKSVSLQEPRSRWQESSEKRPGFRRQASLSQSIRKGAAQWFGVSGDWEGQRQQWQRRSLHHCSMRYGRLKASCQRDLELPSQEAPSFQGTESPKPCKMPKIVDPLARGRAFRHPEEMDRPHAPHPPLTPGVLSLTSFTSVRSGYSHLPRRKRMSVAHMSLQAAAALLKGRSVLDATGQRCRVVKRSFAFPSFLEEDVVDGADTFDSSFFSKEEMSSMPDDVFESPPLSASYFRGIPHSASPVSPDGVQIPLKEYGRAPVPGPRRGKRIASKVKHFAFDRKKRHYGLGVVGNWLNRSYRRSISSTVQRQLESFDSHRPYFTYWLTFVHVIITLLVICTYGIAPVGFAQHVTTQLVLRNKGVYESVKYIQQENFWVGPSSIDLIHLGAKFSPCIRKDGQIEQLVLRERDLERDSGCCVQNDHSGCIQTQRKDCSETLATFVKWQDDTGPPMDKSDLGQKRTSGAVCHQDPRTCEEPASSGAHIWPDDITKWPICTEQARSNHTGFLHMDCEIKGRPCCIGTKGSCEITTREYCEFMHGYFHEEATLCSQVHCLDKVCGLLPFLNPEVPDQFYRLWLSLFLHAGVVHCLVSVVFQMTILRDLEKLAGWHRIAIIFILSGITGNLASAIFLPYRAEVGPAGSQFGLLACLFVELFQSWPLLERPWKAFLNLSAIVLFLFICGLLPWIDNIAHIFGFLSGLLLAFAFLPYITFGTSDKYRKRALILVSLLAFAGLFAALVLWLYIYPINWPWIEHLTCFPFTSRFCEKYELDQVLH
# T2: hiR2-FL-C508A-T7 (human, UniProt Q6PJF5 1-856)
# T2 construct: reduced surface expression reported
# T2 sequence: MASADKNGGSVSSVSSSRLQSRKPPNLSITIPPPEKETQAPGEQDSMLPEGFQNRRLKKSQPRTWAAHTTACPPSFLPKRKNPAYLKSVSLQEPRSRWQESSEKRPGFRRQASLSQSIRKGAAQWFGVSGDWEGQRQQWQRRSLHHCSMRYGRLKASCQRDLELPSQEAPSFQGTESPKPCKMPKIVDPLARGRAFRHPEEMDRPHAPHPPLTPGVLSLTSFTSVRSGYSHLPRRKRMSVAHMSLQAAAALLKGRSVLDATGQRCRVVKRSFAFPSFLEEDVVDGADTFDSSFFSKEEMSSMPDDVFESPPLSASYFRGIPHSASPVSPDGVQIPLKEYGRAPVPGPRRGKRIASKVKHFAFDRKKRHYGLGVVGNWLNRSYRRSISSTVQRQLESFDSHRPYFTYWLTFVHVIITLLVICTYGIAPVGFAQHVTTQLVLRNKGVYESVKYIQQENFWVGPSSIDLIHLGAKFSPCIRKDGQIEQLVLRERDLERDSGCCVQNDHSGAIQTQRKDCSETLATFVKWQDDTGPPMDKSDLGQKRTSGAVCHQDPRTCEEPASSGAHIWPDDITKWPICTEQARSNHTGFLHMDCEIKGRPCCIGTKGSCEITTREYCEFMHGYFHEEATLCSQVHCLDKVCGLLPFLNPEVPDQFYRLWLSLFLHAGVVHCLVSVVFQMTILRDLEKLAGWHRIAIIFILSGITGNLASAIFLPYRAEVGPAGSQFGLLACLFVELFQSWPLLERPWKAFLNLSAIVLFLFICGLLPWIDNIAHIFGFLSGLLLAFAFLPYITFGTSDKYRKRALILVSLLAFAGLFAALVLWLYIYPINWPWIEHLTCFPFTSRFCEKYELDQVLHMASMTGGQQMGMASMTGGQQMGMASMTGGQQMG
# B1: antibody 16 (antibody, V domains shown)
# VH: QVTLKESGPGILQPSQTLSLTCSFSGFSLSTFALGVGWIRQPSGRGLEWLAHIWWDDDKYYNPALKSRLTISKDTSKNHVFLKIANVDTADTATYYCARITTYYYGMDYWGQGTSVTVSS
# VL: DIVLSQSPATLSVTPGDSVSLFCRASQSIGNHLHWYQQESHASPRLLIKYASQSISGIPSRFSGSGSGTDFTLSINSVETEDFGMYFCQQSYNWPLTFGAGTKLELK
# notes: mouse IgG, kappa light chain; also called clone #16; purified antibody 16
# B2: antibody 5 (antibody, V domains shown)
# VH: QVTLKESGPGILQPSQTLSLTCSFSGFSLSTFGMGVGWIRQPSGKGLEWLAHIWWDDEKYYNSALKSRLTISKATSKNQAFLKIANVDTADTATYYCARISNYGSNYWYFNVWGTGTTVTVSS
# VL: QVVLTQSPALMSASPGEKVTMTCSAGSSVSCMYWYQQKPGSSPRVLIYDTSNLASGVPARFTGSGSGTSYSLTISRMEAEDAASYYCQQWNSYPLTFGAGTKLELK
# notes: mouse IgG, kappa light chain; also called clone #5; purified antibody 5
# B3: antibody 22 (antibody, V domains shown)
# VH: QVTLKESGPGILQPSQTLSLTCSFSGFSLSTFGMGVGWIRQPSGKGLEWLAHIWWDDEKYYNSALKSRLTISKATSKNQVFLKIANVDTADTATYYCARISNYGSNYWYFNVWGTGTTVTVSS
# VL: QVVLTQSPALMSASPGEKVTMTCSAGSSVSYMYWYQQKPGSSPRVLIYDTSNLASGVPARFTGSGSGTSYSLTISRMEAEDAATYYCQQWNSYPLTFGAGTKLELK
# notes: mouse IgG, kappa light chain; also called clone #22; purified antibody 22
# B4: antibody 42 (antibody, V domains shown)
# VH: QVTLKESGPGILQPSQTLSLTCSLSGFSLSTFGRGVGWIRQPSGKGLEWLAHIWWDDEKYYNPALKSRLTISKDTSKNQVFLRIANVDTADTATYYCARIQNYGSNYWYFDVWGTGTTVTVSS
# VL: LIVLTQSPAIMSASPGEKVTMTCGATSRISYMFWYQQKPGSSPRVLIYDTSNLASGVPVRFSGSGSGTSYSLTISRVEAEDVATYYCQQWNSYPLTFGAGTKLELK
# notes: mouse IgG, kappa light chain; also called clone #42; purified antibody 42
# B5: antibody 3 (antibody, V domains shown)
# VH: QVTLKESGPGILQPSQTLSLTCSFSGFSLTTFAMGIGWVRQPSGKGLEWLAHIWWDGEKYNNPVLKSRLTISKDTSKNQVFLRIANVDTPDTATYYCARISSIYYIIDNWGQGTSVTVSS
# VL: DIVLTQSPATLSVTPGHSVSLSCRASQSISNNLHWYQKKSHESPRLLIKYVSQSISGIPSRFSGSGSGTDFTLSINSVETEDFGMYFCQQSYNWPLTFGAGTKLELK
# notes: mouse IgG, kappa light chain; also called clone #3; purified antibody 3
# B6: antibody 34 (antibody, V domains shown)
# VH: QVTLKESGPGILQPSQTLSLTCSFSGFSLSTFSLGVGWIRQSSGKGLEWLAHIWWDDEKYYNPALKSRLTISKDTSKNQVFLKIANVDAADTATYYCARAYYSKSYYALDYWGQGTSVTVSS
# VL: DIQMTQSPSSLSASLGERVSLTCRASQEISGYLSWLQQKPDGTIKRLIYAASTLDSGVPKRFSGSRSGSDYSLAISSLESEDFADYYCLQYANFPFTFGSGTKLEIK
# notes: mouse IgG, kappa light chain; also called clone #34; purified antibody 34
# B7: antibody 43 (antibody, V domains shown)
# VH: QVALKESGPGILQPSQTLSLTCSFSGFSLSTFGMGVGWIRQSSGKGLEWLANIWWDDDKYYNPALKSRLTISKDASKNQAFLKIANVDTADTATYYCARIGNYGSNYWYFDVWGTGTTVTVSS
# VL: QIVLTQSPAIMSASPGERVTMTCSANSRISYMYWYQQKPGSSPRLLIYDTSNLASGVPVRFSGSGSGTSYSLTISRMEAEDAATYNCQQWSSYPLTFGAGTKLELK
# notes: mouse IgG, kappa light chain; also called clone #43; purified antibody 43
# B8: antibody 44 (antibody, V domains shown)
# VH: QVTLKESGPGILQPSQTLSLTCSFSGFSLSTFGMGVGWIRQPSEKGLEWLAHIWWDDDKYYNPALKSRLTISKDTSKNQIFLKITNVDTAETATYYCSRIGNYGSNYWYFDVWGTGTTVTVSS
# VL: QIVLTQSPAVMSASPGEKVTMTCTASSSVYYMYWYQQTPGSSPRLLIYDTSNLASGVPVRFSGSGSGTSYSLTISRMEAEDAATYYCQQWNTYPLTFGAGTKLELK
# notes: mouse IgG, kappa light chain; also called clone #44; purified antibody 44
# B9: antibody 48 (antibody, V domains shown)
# VH: QVQLQQSGTELVRPGTSVKVSCKASGYAFTNYLIEWVKQRPGQGLEWIGVINPGSGFTKYNEKFKGKATLTADKSSSTVYMHLSSLTSEDSAVYFCARGLYRAMDYWGQGTSVTVSS
# VL: DIQMTQSPASQSASLGESVTITCLASQTIATWLAWYQQKPGKSPQLLIYGATTLADGVPSRFSGGGSGTKFSFKISSLQAEDFVSYYCQQLYSTPYTFGGGTKLEIK
# notes: mouse IgG, kappa light chain; also called clone #48; purified antibody 48
# B10: antibody 50 (antibody, V domains shown)
# VH: QVQLQQSGAELVRPGASVKVSCKASGYAFSNYLIEWVKQRPGQGLEWIGVINPGSGFTKYNEKFKGKATLTADKSSSTAYMQLSSLTSEDSAVYFCARGLYRAMDYWGQGTSVTVSS
# VL: DIQMTQSPASQSASLGESVTITCLASQTIGTWLAWYQQKPGKSPQLLIYAAASLADGVPSRFSGGGSGTKFSFKISSLQAEDFVNYYCQQIYSTPYTFGGGTKLEIK
# notes: mouse IgG, kappa light chain; also called clone #50; purified antibody 50
# Columns and labels:
# [1] = biological target: T1, human iRhom2, endogenously expressed; assay: indirect FACS scatchard analysis on THP-1 cells
# Description: In brief, human THP-1 cells (American Type Culture Collection, USA) were harvested with 10 mM EDTA in PBS, washed and resuspended in FACS buffer (PBS, 3% FBS, 0.05% sodium azide), and seeded in Nunc U-bottom 96-well plates (Thermo Fisher Scientific, USA) at approximately 3×10⁵ cells per well. In order to pellet cells and remove supernatants, the plates were centrifuged at 1,500 rpm and 4° C. for 3 minutes. For primary staining, cells were resuspended in 100 μl per well of either FACS buffer alone (controls) or serial two-fold dilutions (in total 22 concentrations) of the purified antibodies 3, 5, 16, 22, 34, 42, 43, 44, 48, and 50 of the invention in FACS buffer starting at 40 μg/ml and incubated on ice for 1 hour. Afterwards, plates were centrifuged at 1,500 rpm and 4° C. for 3 minutes and washed twice with 200 μl per well of FACS buffer. For secondary staining, cells were spun down and resuspended in 100 μl per well of PE-conjugated goat anti-mouse IgG F(ab′)2 detection fragment (Dianova, Germany) diluted 1:100 in FACS buffer. Protected from light, the cell suspensions were incubated on ice for 1 hour. Plates were then centrifuged at 1,500 rpm and 4° C. for 3 minutes and washed three times with 200 μl per well of FACS buffer. Finally, cells were resuspended in 150 μl per well of FACS buffer and analyzed using a BD Accuri™ C6 Plus flow cytometer (Becton Dickinson, Germany). Applying Prism8 software (GraphPad Sowtware, USA), the respective KD value for each of the antibodies of the invention were calculated.
# hiR2-FL-C508A-T7 = biological target: T2, hiR2-FL-C508A-T7; assay: FACS on MEF-DKO cells expressing the variant, 3 µg/ml antibody
# Description: To pellet cells and remove supernatants, the plates were centrifuged at 1,500 rpm and 4° C. for 3 minutes. For primary staining, cells were resuspended in 100 μl per well of either FACS buffer alone (controls) or the purified antibodies 3, 5, 16, 22, 34, 42, 43, 44, 48, and 50 of the invention at 3 μg/ml in FACS buffer and incubated on ice for 1 hour. Afterwards, plates were centrifuged at 1,500 rpm and 4° C. for 3 minutes and washed twice with 200 μl per well of FACS buffer. For secondary staining, cells were spun down and resuspended in 100 μl per well of PE-conjugated goat anti-mouse IgG F(ab′)2 detection fragment (Dianova, Germany) diluted 1:100 in FACS buffer. Protected from light, the cell suspensions were incubated on ice for 1 hour. Plates were then centrifuged at 1,500 rpm and 4° C. for 3 minutes and washed three times with 200 μl per well of FACS buffer. Finally, cells were resuspended in 150 μl per well of FACS buffer and analyzed using a BD Accuri™ C6 Plus flow cytometer (Becton Dickinson, Germany).
Binder,Kd [1] [nM],loss of binding vs wild type (hiR2-FL-C508A-T7) [%]
B1,0.34,
B2,3.35,≥ 30
B3,2.04,≥ 30
B4,1.9,≥ 30
B5,2.97,
B6,1.94,≥ 30
B7,4.55,≥ 30
B8,0.44,≥ 30
B9,1.73,
B10,1.43,

# Reference: patent US20240287172A1 (SCIRHOM, published 2024)
